# Measurements taken from patent US20210284724A1 (I MAB BIOPHARMA US, published 2021).
# T1: human CXCL13 (human, UniProt O43927 23-109)
# T1 construct: also called huCXCL13; rhCXCL13
# T1 sequence (looked up): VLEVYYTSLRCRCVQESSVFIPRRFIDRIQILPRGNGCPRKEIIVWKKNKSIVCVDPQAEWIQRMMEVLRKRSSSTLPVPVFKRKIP
# Molecular target: T1, human CXCL13
# Assay: SPR Biacore, off-rate ranking of Fabs
Binder,Kd [nM],koff [s⁻¹],kon [M⁻¹ s⁻¹]
"21H12D9-VH1VL3 (Fab, V domains shown, Humanized Fab, human gamma 1 and kappa constant domains; also called 21VH12D9-VH1VL3) VH: QVQLVQSGAEVKKPGASVKVSCKASGYTFTDYYMNWVRQAPGQGLEWMGVINPNNGGTTYKEKFKGRVTMTRDTSISTAYMELSRLRSDDTAVYYCARDDYDAGYWGQGTLVTVSS VL: DIQMTQSPSSVSTSVGDRVTITCKASQNVDTAVAWYQQKPGKAPKLLIYSASHRYTGVPSRFSGSGSGTDFTLTISSVQPEDFATYYCQQYTDFPLTFGQGTRLEIK",1.67,0.000975,584000
"21H12D9-VH2VL3 (Fab, V domains shown, Humanized Fab, human gamma 1 and kappa constant domains; also called 21VH12D9-VH2VL3) VH: QVQLVQSGAEVVKPGASVKVSCKASGYTFTDYYMNWVRQAPGQGLEWMGVINPNNGGTTYKEKFKGRVTMTVDTSISTAYMELSRLRSDDTAVYYCARDDYDAGYWGQGTLVTVSS VL: DIQMTQSPSSVSTSVGDRVTITCKASQNVDTAVAWYQQKPGKAPKLLIYSASHRYTGVPSRFSGSGSGTDFTLTISSVQPEDFATYYCQQYTDFPLTFGQGTRLEIK",1.98,0.000992,501000
"21H12D9-VH3VL1 (Fab, V domains shown, Humanized Fab, human gamma 1 and kappa constant domains; also called 21VH12D9-VH3VL1) VH: QVQLVQSGAEVVKPGASVKVSCKASGYTFTDYYMNWVRQAPGQGLEWIGVINPNNGGTTYKEKFKGRATLTVDTSISTAYMELSRLRSDDTAVYYCARDDYDAGYWGQGTLVTVSS VL: DIQMTQSPSSVSASVGDRVTITCKASQNVDTAVAWYQQKPGKAPKLLIYSASHRYTGVPSRFSGSGSGTDFTLTISSLQPEDFATYYCQQYTDFPLTFGQGTRLEIK",1.76,0.00131,744000
"21H12D9-VH2VL1 (Fab, V domains shown, Humanized Fab, human gamma 1 and kappa constant domains; also called 21VH12D9-VH2VL1) VH: QVQLVQSGAEVVKPGASVKVSCKASGYTFTDYYMNWVRQAPGQGLEWMGVINPNNGGTTYKEKFKGRVTMTVDTSISTAYMELSRLRSDDTAVYYCARDDYDAGYWGQGTLVTVSS VL: DIQMTQSPSSVSASVGDRVTITCKASQNVDTAVAWYQQKPGKAPKLLIYSASHRYTGVPSRFSGSGSGTDFTLTISSLQPEDFATYYCQQYTDFPLTFGQGTRLEIK",1.74,0.000991,570000
"21H12D9-VH3VL2 (Fab, V domains shown, Humanized Fab, human gamma 1 and kappa constant domains; also called 21VH12D9-VH3VL2) VH: QVQLVQSGAEVVKPGASVKVSCKASGYTFTDYYMNWVRQAPGQGLEWIGVINPNNGGTTYKEKFKGRATLTVDTSISTAYMELSRLRSDDTAVYYCARDDYDAGYWGQGTLVTVSS VL: DIQMTQSPSSVSTSVGDRVTITCKASQNVDTAVAWYQQKPGKAPKLLIYSASHRYTGVPSRFSGSGSGTDFTLTISSLQPEDFATYYCQQYTDFPLTFGQGTRLEIK",1.47,0.00138,940000
"71F4A3-VH2VL2 (Fab, V domains shown, Humanized Fab, human gamma 1 and kappa constant domains) VH: EVQLVQSGGGLVQPGGSLRLSCAASGIDFSRYWMSWVRQAPGKGLEWVAEINPDSSTINYAPSLKDRFTISRDNAKNSLYLQMNSLRAEDTAVYYCARQDDYEYYAMDYWGQGTTVTVSS VL: DIQMTQSPSSLSASVGDRVTITCKASQDVNTGVAWYQQKPGKAPKLLIYSASYRYTGVPSRFSGSGSGTDFTFTISSVQPEDIATYYCQQYYSTPLTFGGGTKLEIK",0.607,0.00137,2.25e+06
"71F4A3-VH4VL1 (Fab, V domains shown, Humanized Fab, human gamma 1 and kappa constant domains) VH: EVQLVQSGGGLVQPGGSLRLSCAASGIDFSRYWMSWVRQAPGKGLEWIGEINPDSSTINYAPSLKDRFTISRDNAKNSLYLQMNSVRAEDTAVYYCARQDDYEYYAMDYWGQGTTVTVSS VL: DIQMTQSPSSLSASVGDRVTITCKASQDVNTGVAWYQQKPGKAPKLLIYSASYRYTGVPSRFSGSGSGTDFTFTISSLQPEDIATYYCQQYYSTPLTFGGGTKLEIK",0.59,0.001,1.7e+06
"71F4A3-VH4VL2 (Fab, V domains shown, Humanized Fab, human gamma 1 and kappa constant domains) VH: EVQLVQSGGGLVQPGGSLRLSCAASGIDFSRYWMSWVRQAPGKGLEWIGEINPDSSTINYAPSLKDRFTISRDNAKNSLYLQMNSVRAEDTAVYYCARQDDYEYYAMDYWGQGTTVTVSS VL: DIQMTQSPSSLSASVGDRVTITCKASQDVNTGVAWYQQKPGKAPKLLIYSASYRYTGVPSRFSGSGSGTDFTFTISSVQPEDIATYYCQQYYSTPLTFGGGTKLEIK",0.53,0.00136,2.57e+06
"71F4A3-VH3VL2 (Fab, V domains shown, Humanized Fab, human gamma 1 and kappa constant domains) VH: EVQLVQSGGGLVQPGGSLRLSCAASGIDFSRYWMSWVRQAPGKGLEWVGEINPDSSTINYAPSLKDRFTISRDNAKNSLYLQMNSVRAEDTAVYYCARQDDYEYYAMDYWGQGTTVTVSS VL: DIQMTQSPSSLSASVGDRVTITCKASQDVNTGVAWYQQKPGKAPKLLIYSASYRYTGVPSRFSGSGSGTDFTFTISSVQPEDIATYYCQQYYSTPLTFGGGTKLEIK",0.557,0.00139,2.5e+06
"411A11E9-VH2VL2 (Fab, V domains shown, Humanized Fab, human gamma 1 and kappa constant domains) VH: EVQLVESGGGLVQPGGSLRLSCAASGFTFSDYYMAWVRQAPGKGLEWVASINYDGGDTYYRDSVKGRFTISRDNAKNSLYLQMNSLRAEDTAVYYCATEEDYDGSYVMDAWGQGTLVTVSS VL: DIQMTQSPSSLSASVGDRVTITCKASQNINKELTWYQQKPGKAPKRLIYNTNILQTGVPSRFSGSGSGTEFTLTISSLQPEDFATYFCLQQSSLYTFGQGTKLEIK",1.05,0.00271,2.58e+06

# Results, then the binder that gave them:
Kd [nM],koff [s⁻¹],kon [M⁻¹ s⁻¹],Binder
1.01,0.00207,2.05e+06,"411A11E9-VH3VL3 (Fab, V domains shown, Humanized Fab, human gamma 1 and kappa constant domains) VH: EVQLVESGGGLVQPGGSLRLSCAVSGFTFSDYYMAWVRQAPGKGLEWVASINYDGGDTYYRDSVKGRFTISRDNAKNSLYLQMNSLRAEDTAVYYCATEEDYDGSYVMDAWGQGTLVTVSS VL: DIQMTQSPSSLSASVGDRVTITCKASQNINKELTWYQQKPGKAPKRLIYNTNILQTGIPSRFSGSGSGTEFTLTISSLQPEDFATYFCLQQSSLYTFGQGTKLEIK"
1.03,0.00281,2.73e+06,"411A11E9-VH4VL1 (Fab, V domains shown, Humanized Fab, human gamma 1 and kappa constant domains) VH: EVQLVESGGGLVQPGGSLRLSCAVSGFTFSDYYMAWVRQAPGKGLEWVASINYDGGDTYYRDSVKGRFTVSRDNAKNSLYLQMNSLRAEDTAVYYCATEEDYDGSYVMDAWGQGALVTVSS VL: DIQMTQSPSSLSASVGDRVTITCKASQNINKELTWYQQKPGKAPKRLIYNTNILQTGVPSRFSGSGSGTEFTLTISSLQPEDFATYYCLQQSSLYTFGQGTKLEIK"
3.37,0.00176,523000,"411A11E9-VH1VL3 (Fab, V domains shown, Humanized Fab, human gamma 1 and kappa constant domains) VH: EVQLVESGGGLVQPGGSLRLSCAASGFTFSDYYMAWVRQAPGKGLEWVASINYDGGDTYYRDSVKGRFTISRDNAKNSLYLQMNSLRAEDTAVYYCAREEDYDGSYVMDAWGQGTLVTVSS VL: DIQMTQSPSSLSASVGDRVTITCKASQNINKELTWYQQKPGKAPKRLIYNTNILQTGIPSRFSGSGSGTEFTLTISSLQPEDFATYFCLQQSSLYTFGQGTKLEIK"
1.06,0.00242,2.29e+06,"411A11E9-VH3VL1 (Fab, V domains shown, Humanized Fab, human gamma 1 and kappa constant domains) VH: EVQLVESGGGLVQPGGSLRLSCAVSGFTFSDYYMAWVRQAPGKGLEWVASINYDGGDTYYRDSVKGRFTISRDNAKNSLYLQMNSLRAEDTAVYYCATEEDYDGSYVMDAWGQGTLVTVSS VL: DIQMTQSPSSLSASVGDRVTITCKASQNINKELTWYQQKPGKAPKRLIYNTNILQTGVPSRFSGSGSGTEFTLTISSLQPEDFATYYCLQQSSLYTFGQGTKLEIK"
0.611,0.00107,1.74e+06,"411A11E9-VH4VL4 (Fab, V domains shown, Humanized Fab, human gamma 1 and kappa constant domains) VH: EVQLVESGGGLVQPGGSLRLSCAVSGFTFSDYYMAWVRQAPGKGLEWVASINYDGGDTYYRDSVKGRFTVSRDNAKNSLYLQMNSLRAEDTAVYYCATEEDYDGSYVMDAWGQGALVTVSS VL: DIQMTQSPSSLSASVGDRVTITCKASQNINKELTWYQQKPGKAPKRLIYNTNILQTGIPSRFSGSGSGTEYTLTISSLQPEDFATYFCLQQSSLYTFGQGTKLEIK"
1.19,0.00283,2.37e+06,"411A11E9-VH2VL1 (Fab, V domains shown, Humanized Fab, human gamma 1 and kappa constant domains) VH: EVQLVESGGGLVQPGGSLRLSCAASGFTFSDYYMAWVRQAPGKGLEWVASINYDGGDTYYRDSVKGRFTISRDNAKNSLYLQMNSLRAEDTAVYYCATEEDYDGSYVMDAWGQGTLVTVSS VL: DIQMTQSPSSLSASVGDRVTITCKASQNINKELTWYQQKPGKAPKRLIYNTNILQTGVPSRFSGSGSGTEFTLTISSLQPEDFATYYCLQQSSLYTFGQGTKLEIK"
1.24,0.00266,2.14e+06,"411A11E9-VH4VL3 (Fab, V domains shown, Humanized Fab, human gamma 1 and kappa constant domains) VH: EVQLVESGGGLVQPGGSLRLSCAVSGFTFSDYYMAWVRQAPGKGLEWVASINYDGGDTYYRDSVKGRFTVSRDNAKNSLYLQMNSLRAEDTAVYYCATEEDYDGSYVMDAWGQGALVTVSS VL: DIQMTQSPSSLSASVGDRVTITCKASQNINKELTWYQQKPGKAPKRLIYNTNILQTGIPSRFSGSGSGTEFTLTISSLQPEDFATYFCLQQSSLYTFGQGTKLEIK"
1.04,0.013,1.25e+07,"411A11E9-VH1VL1 (Fab, V domains shown, Humanized Fab, human gamma 1 and kappa constant domains) VH: EVQLVESGGGLVQPGGSLRLSCAASGFTFSDYYMAWVRQAPGKGLEWVASINYDGGDTYYRDSVKGRFTISRDNAKNSLYLQMNSLRAEDTAVYYCAREEDYDGSYVMDAWGQGTLVTVSS VL: DIQMTQSPSSLSASVGDRVTITCKASQNINKELTWYQQKPGKAPKRLIYNTNILQTGVPSRFSGSGSGTEFTLTISSLQPEDFATYYCLQQSSLYTFGQGTKLEIK"
1.42,0.00335,2.36e+06,"411A11E9-VH2VL3 (Fab, V domains shown, Humanized Fab, human gamma 1 and kappa constant domains) VH: EVQLVESGGGLVQPGGSLRLSCAASGFTFSDYYMAWVRQAPGKGLEWVASINYDGGDTYYRDSVKGRFTISRDNAKNSLYLQMNSLRAEDTAVYYCATEEDYDGSYVMDAWGQGTLVTVSS VL: DIQMTQSPSSLSASVGDRVTITCKASQNINKELTWYQQKPGKAPKRLIYNTNILQTGIPSRFSGSGSGTEFTLTISSLQPEDFATYFCLQQSSLYTFGQGTKLEIK"
0.944,0.00196,2.08e+06,"411A11E9-VH4VL2 (Fab, V domains shown, Humanized Fab, human gamma 1 and kappa constant domains) VH: EVQLVESGGGLVQPGGSLRLSCAVSGFTFSDYYMAWVRQAPGKGLEWVASINYDGGDTYYRDSVKGRFTVSRDNAKNSLYLQMNSLRAEDTAVYYCATEEDYDGSYVMDAWGQGALVTVSS VL: DIQMTQSPSSLSASVGDRVTITCKASQNINKELTWYQQKPGKAPKRLIYNTNILQTGVPSRFSGSGSGTEFTLTISSLQPEDFATYFCLQQSSLYTFGQGTKLEIK"
